Measured values published in paper PMC7279403, “Zygotic Vsx1 Plays a Key Role in Defining V2a Interneuron Sub-Lineage by Directly Repressing tal1 Transcription in Zebrafish”.

Assays:
[1] = target: T1, Vsx1 homeodomain (Vsx1-Homeodomain-His) (zebrafish, UniProt O42250 132-224); assay: EMSA; LightShift Chemiluminescent EMSA kit (Pierce), 6% native PAGE; binding buffer as in He et al. [23], salt, pH and temperature not given; conditions: protein: recombinant; tags: His in the Results; label: biotin 5' end (labeled probe)
T1 sequence (O42250 132-224): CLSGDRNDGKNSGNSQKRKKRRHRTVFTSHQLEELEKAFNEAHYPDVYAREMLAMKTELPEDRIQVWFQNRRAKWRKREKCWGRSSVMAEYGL

[2] = target: T1, Vsx1 homeodomain (Vsx1-Homeodomain-His); assay: competition; 500-fold excess against biotin site 12 probe; only weak complex left; LightShift Chemiluminescent EMSA kit (Pierce), 6% native PAGE; binding buffer as in He et al. [23], salt, pH and temperature not given; conditions: protein: recombinant; tags: His in the Results; label: none
[3] = target: T1, Vsx1 homeodomain (Vsx1-Homeodomain-His); assay: competition; 500-fold excess against biotin site 14 probe; only weak complex left; LightShift Chemiluminescent EMSA kit (Pierce), 6% native PAGE; binding buffer as in He et al. [23], salt, pH and temperature not given; conditions: protein: recombinant; tags: His in the Results; label: none
[4] = target: T1, Vsx1 homeodomain (Vsx1-Homeodomain-His); assay: competition; 500-fold or more excess against biotin site 12 probe; no competition; LightShift Chemiluminescent EMSA kit (Pierce), 6% native PAGE; binding buffer as in He et al. [23], salt, pH and temperature not given; conditions: protein: recombinant; tags: His in the Results; label: none
[5] = target: T1, Vsx1 homeodomain (Vsx1-Homeodomain-His); assay: competition; 500-fold or more excess against biotin site 14 probe; no competition; LightShift Chemiluminescent EMSA kit (Pierce), 6% native PAGE; binding buffer as in He et al. [23], salt, pH and temperature not given; conditions: protein: recombinant; tags: His in the Results; label: none

B1: tal1 binding site 12 probe (dsDNA)
DNA 1: TGGCCGCATAATTAATTTCTGATTGAG
DNA 2: CTCAATCAGAAATTAATTATGCGGCCA
- binding result [1]: binds

B2: tal1 binding site 14 probe (dsDNA)
DNA 1: ACGCAGATCATAATTAGGCGTTTGATC
DNA 2: GATCAAACGCCTAATTATGATCTGCGT
- binding result [1]: binds

B3: tal1 site 12 unlabeled wild-type competitor (dsDNA)
DNA 1: TGGCCGCATAATTAATTTCTGATTGAG
DNA 2: CTCAATCAGAAATTAATTATGCGGCCA
- binding result [2]: binds

B4: tal1 site 14 unlabeled wild-type competitor (dsDNA)
DNA 1: ACGCAGATCATAATTAGGCGTTTGATC
DNA 2: GATCAAACGCCTAATTATGATCTGCGT
- binding result [3]: binds

B5: tal1 site 12 mutant competitor (TAATTA to TCGATA) (dsDNA)
DNA 1: TGGCCGCATCGATCGATTCTGATTGAG
DNA 2: CTCAATCAGAATCGATCGATGCGGCCA
- binding result [4]: no binding

B6: tal1 site 14 mutant competitor (TAATTA to TCGATA) (dsDNA)
DNA 1: ACGCAGATCATCGATAGGCGTTTGATC
DNA 2: GATCAAACGCCTATCGATGATCTGCGT
- binding result [5]: no binding
